Laboratory results: US20110293648A1 (LUDWIG INSTITUTE FOR CANCER RESEARCH, published 2011)
Each block holds one molecule with its values, some of them ahead of it.

Assays:
HLA-DR = assay: flow cytometry, staining of an EBV cell line (internal control)
MHC class I = assay: as above
HLA-DRB1*0301 [1] = target: HLA-DRB1*0301 (human); assay: cell-based or functional assay
HLA-DRB1*0701 = target: T1, HLA-DRB1*0701 (human); assay: not specified ('The methods described above')
T1 construct: whole, on cells; On LCL 40 or homozygous EBV line BH in the T cell assays

HLA-DRB1*0301 [2] = target: T2, HLA-DRB1*0301 (human); assay: not specified ('The methods described above')
T2 construct: whole, on cells; also called DR3; HLA-DR3

HLA-DRB1*0101 = target: T3, HLA-DRB1*0101 (human); assay: not specified ('The methods described above')
T3 construct: Only the beta allele is printed

HLA-DRB1*1101 = target: T4, HLA-DRB1*1101 (human); assay: not specified ('The methods described above')
T4 construct: whole, on cells; On antigen presenting cells in the ELISPOT assays

HLA-DRB1*1501 = target: T5, HLA-DRB1*1501 (human); assay: not specified ('The methods described above')
T5 construct: whole, on cells; On Me 290 cells in the ELISPOT assay

HLA-DRB5*0101 = target: T6, HLA-DRB5*0101 (human); assay: not specified ('The methods described above')
T6 construct: whole, on cells; On Me 290 cells in the ELISPOT assay

binding result (HLA-DRB1*0701): binds
binding result (HLA-DRB1*0301 [2]): binds
Molecule: FGRLQGISPKIMPKK [SSX-2 peptide p101-115]

binding result (HLA-DRB1*0101): binds
binding result (HLA-DRB1*1101): binds
binding result (HLA-DRB1*1501): binds
binding result (HLA-DRB5*0101): binds
B1: SSX-2 peptide p98-112 (peptide)
peptide: QMTFGRLQGISPKIM
notes: also called p98-111 (as printed once); SSX-2 98-112

The remaining lines, values behind:

Molecule: anti-HLA-DR antibody clone L243
MFI (HLA-DR): 787 MFI

Molecule: anti-pan MHC-I antibody clone W6/32
MFI (MHC class I): 271 MFI

Molecule: WEKMKASEKIFIVYM [SSX-5 37-51 peptide]
cross-recognition by SSX-2 specific, DR3 restricted CD4+ T cells, peptide titration, IFN-gamma ELISA; efficiency against SSX-2 37-51 (HLA-DRB1*0301 [1]): ~3 fold less efficiently

Molecule: WEKMKSSEKIVYVYM [SSX-4 37-51 peptide]
cross-recognition by SSX-2 specific, DR3 restricted CD4+ T cells, peptide titration, IFN-gamma ELISA; efficiency against SSX-2 37-51 (HLA-DRB1*0301 [1]): ~10 fold less efficiently
